In patent publication US7439329B2, “GEF-H1b: biomarkers, complexes assays and therapeutic uses thereof” (Sugen, Inc., priority 2002, dated 2008):

Assays:
[1] = biological target: T1, PAK4 (Homo sapiens, UniProt O96013); assay: In vitro kinase assay, phosphorylation of substrates by PAK4; assay type: biochemical; design: Glutathione-s-transferase (GST) fused PAK4 (residues 291-591); GST (N); made in house; conditions: autoradiography
Description: Next examined, was whether GEF-H1 is a PAK4 substrate. In vitro kinase assays were performed using a GEF-H1 GST-fusion protein, a Maguin-2-like GST-fusion protein and GST control protein as substrates for phosphorylation by PAK4.
The cDNA encoding GEF-H1S obtained in the phage display screen was excised and subcloned into pGEX-4T expression vector to allow for recombinant production of protein for in vitro experiments. The GEF-H1S protein was then mixed with PAK4 kinase and incubated such that PAK4 phosphorylated the GEF-H1S. A portion of this kinase reaction was separated by SDS-PAGE and autoradiographed to visualize the extent of phosphorylation. […] SDS-PAGE is a universal protein separation and visualization technique that is described in Laemmli, Nature, 227(259):680-5, 1970.
From the phosphorylation experiments described above, two peptides of GEF-H1S were identified as being targets for PAK4-induced phosphorylation. The GEF-H1S target residues were identified by aligning the PAK4 activation loop peptide with the GEF-H1S polypeptide sequence amino acids 762 to 921.
The following phosphoisomers (phosphate-modified GEF-H1S peptides) were used in PAK4 kinase assays to determine which residues were specifically phosphorylated. Because certain residues were modified to comprise a phosphate moiety (the underlined residues below), they could not be phosphorylated by PAK4. […]
Target sequence in this assay (O96013 291-591): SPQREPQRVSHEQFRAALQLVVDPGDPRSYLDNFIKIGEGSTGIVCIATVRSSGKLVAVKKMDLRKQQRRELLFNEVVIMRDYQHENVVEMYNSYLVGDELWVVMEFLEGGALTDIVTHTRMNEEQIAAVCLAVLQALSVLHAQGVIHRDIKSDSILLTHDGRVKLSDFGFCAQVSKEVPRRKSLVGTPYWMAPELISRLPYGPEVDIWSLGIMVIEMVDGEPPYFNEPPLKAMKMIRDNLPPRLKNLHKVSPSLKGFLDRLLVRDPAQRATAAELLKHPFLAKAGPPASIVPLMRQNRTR

[2] = biological target: T1, PAK4; assay: GST pull-down binding assay with 293T lysates expressing exogenous PAK4; design: expressed in transfected cells; host or cells: 293T; conditions: GST-fusion protein on glutathione beads
Description: FIG. 1: (SEQ ID NOs 32-34 respectively in order of appearance) Direct binding of GEF-H1 to PAK4. Lysates were prepared from 293T cells over expressing (a) myc tagged PAK4 alleles or subdomains and incubated with GST, GST-GEF-H1 (787-921) and GST-Maguin-like bound to Glutathione beads (1,2,3,4 bead designation) or (b) GFP-GEF-H1 and incubated with PAK4 biotinylated peptides (291-355) and (276-324) linked to streptavidin beads. An equivalent amount of beads and excess lysates (500 ug) were used. Eluates of beads and total lysates were analysed by SDS-PAGE and immunoblotted with myc or GEF-H1 antiserum; (c) represents a PAK4 gene schematic outlining the regions of PAK4 used to identify the GEF-H1 interaction domain (GID). d, alignment of the GID defined by the minimal binding region of PAK4 with PAK5 and PAK6.
To confirm the in vitro interaction of GEF-H1S with PAK4, bacterially expressed GST-fusion proteins were generated with the identical sequences isolated by phage display, encoding either amino acids 763-921 of GEF-H1S or amino acids 385-555 from the Maguin-2-like protein. These fusion proteins were bound to glutathione beads and utilized in binding assays with 293T lysates expressing exogenous PAK4. […]
Target sequence in this assay (O96013 whole entry, the tested form may be a part): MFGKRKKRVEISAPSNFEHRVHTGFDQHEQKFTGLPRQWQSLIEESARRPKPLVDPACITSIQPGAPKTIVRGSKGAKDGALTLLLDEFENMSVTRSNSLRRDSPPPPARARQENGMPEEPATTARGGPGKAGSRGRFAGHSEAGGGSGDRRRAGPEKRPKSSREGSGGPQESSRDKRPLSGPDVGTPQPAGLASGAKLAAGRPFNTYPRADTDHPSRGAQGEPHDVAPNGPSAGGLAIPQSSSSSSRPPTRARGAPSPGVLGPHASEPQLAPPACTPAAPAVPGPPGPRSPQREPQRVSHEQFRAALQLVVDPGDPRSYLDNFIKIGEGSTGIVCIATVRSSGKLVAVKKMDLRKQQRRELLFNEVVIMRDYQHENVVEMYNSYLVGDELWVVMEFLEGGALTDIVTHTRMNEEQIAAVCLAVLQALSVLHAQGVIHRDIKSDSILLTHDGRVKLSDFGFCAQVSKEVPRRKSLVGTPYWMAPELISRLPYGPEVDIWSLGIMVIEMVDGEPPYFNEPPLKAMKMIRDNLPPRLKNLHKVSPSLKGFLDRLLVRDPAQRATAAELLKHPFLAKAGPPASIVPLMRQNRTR

B1: GST-GEF-H1S (aa763-921): bacterially expressed GST-fusion protein of amino acids 763-921 of GEF-H1S (protein)
chain: LRESEQARALLEREAEEARRQLAALGQTEPLPAEAPWARRPVDPRRRSLPAGDALYLSFNPPQPSRGTDRLDLPVTTRSVHRNFEDRERQELGSPEERLQDSSDPDTGSEEEGSSRLSPPHSPRGETLAETWTRDFTRMQDIPEETESRDGEAVASES
modifications: left off: a dimerising Fc or GST
notes: bacterially expressed GST-fusion protein of amino acids 763-921 of GEF-H1S
phosphorylation by PAK4 in vitro [1]: showed phosphorylation | binding to full-length myc-tagged PAK4 protein and the kinase domain (amino acids 291-591) [2]: able to bind strongly
